Source: the RNAGym collection of RNA variant scans (doi:10.7554/elife.90254)

B1: LINE1-full (parent)
chain: UACGUAGGUGGUUUUCCCCUGAUAGUGCUAAGGGGGCCUGGAAGUUUGGACUGGGCAGAGCUCAACACAGCGUGGCAAAGUGGCUGUGGCUAGACUGCCUCUCUGGAUUCCUCGUCACUCAGCAGGGCAUCUCUGAGAGAAAUGCC

Variants of: B1
Assay: self-cleavage, relative activity (ratio to wild type); higher = more cleavage; in vitro, sequencing; the parent is a self-cleaving ribozyme

Which self-cleavage does the source give for UACGUAGGUGGUUUUCCCCUGAUAGUGCUAAGGGGGCCCGGAAGUUUGGACUGGGCAGAGCUCAACACAGCGUGGCAAAGUGGCUGUGGCUAGACUGCCUCUCUGGAUUCCUCGUCACUCAGCAGGGCAUCUCUAAGAGAAAUGCC [U39C G135A] here?
Its self-cleavage is 1.2.

Which self-cleavage does the source give for UACGUAGGUGGUUUUCCCCUGAUAGUGCUAAGGGGGCCCGGAAGCUUGGACUGGGCAGAGCUCAACACAGCGUGGCAAAGUGGCUGUGGCUAGACUGCCUCUCUGGAUUCCUCGUCACUCAGCAGGGCAUCUCUGAGAGAAAUGCC [U39C U45C] here?
The self-cleavage was 1.54.

Which self-cleavage does the source give for UACGUAGGUGGUUUUCCCCUGAUAGUGCUAAGGGGGCCCGGAAGUUUGGACUGGGCAGAGCUCAACACAGCGUGGCAAAGUGGCUGUGGCUAGACUGCCUCUCUGGAUUCCUCGUCACUCAGCAGGGCAUCUCUGAGAGAAAUACC [U39C G144A] here?
Its self-cleavage is 0.85.

For UACGUAGGUGGUUUUCCCCUGAUAGUGCUAAGGGGGCCCGGAAGUUUGGACUGGGCAGAGCUCAACACAGCGUGGCAAAGUGGCUGUGGCUAGACUGCCUCUCUGGAUUCCUCGUCACUCAGCAGGGUAUCUCUGAGAGAAAUGCC [U39C C128U], which self-cleavage is on record?
Its self-cleavage is 1.16.

With UACGUAGGUGGUUUUCCCCUGAUAGUGCUAAGGGGGCCCGGAAGUUUGGACUGGGCAGAGCUCAACACAGCGUGGCAAAAUGGCUGUGGCUAGACUGCCUCUCUGGAUUCCUCGUCACUCAGCAGGGCAUCUCUGAGAGAAAUGCC [U39C G80A] as the variant, how does the self-cleavage read?
The self-cleavage was 1.06.

For UACGUAGGUGGUUUUCCCCUGAUAGUGCUAAGGGGGCCCGGAAGUCUGGACUGGGCAGAGCUCAACACAGCGUGGCAAAGUGGCUGUGGCUAGACUGCCUCUCUGGAUUCCUCGUCACUCAGCAGGGCAUCUCUGAGAGAAAUGCC [U39C U46C], which self-cleavage is on record?
Its self-cleavage is 1.56.

For UACGUAGGUGGUUUUCCCCUGAUAGUGCUAAGGGGGCCCGGAAGUUUGGACUGGGCAGAGCUCAACACAGCGUGGCAAAGUGGCUGUGGCUAGACUGCCUCUCUGGAUUCCUCGUCAAUCAGCAGGGCAUCUCUGAGAGAAAUGCC [U39C C118A], which self-cleavage is on record?
The self-cleavage was 1.33.

For UACGUAGGUGGUUUUCCCCUGAUAGUGCUAAGGGGGCCCGGAAGUUUGGACUGGGCAGAGCUCAACACAGCGUGGCAAAGUGGCUGUGGCUAGACUGCCUCUCUGGAUUCCUCGUCACUCAGCAGGGCAUCUCUGAGUGAAAUGCC [U39C A138U], which self-cleavage is on record?
The self-cleavage was 1.29.

Which self-cleavage does the source give for UACGUAGGUGGUUUUCCCCUGAUAGUGCUAAGGGGGCCCGGAAGUUUGGACUGGGCAGAGCUCAACACAGCGUGGCAAAGUGGCUGUGGCUAGACUGCCUCUCUGGAUUCCUCGUCACUCAGCAGGGCAUCUCUGAGGGAAAUGCC [U39C A138G] here?
Its self-cleavage is 1.29.

For UACGUAGGUGGUUUUCCCCUGAUAGUGCUAAGGGGGCCCGGAAGUUUGGACUGGGCAGAGCUCAACACAGCGUGGCAAAGUGGCUGUGGCUAGACUGCCUCUCUGUAUUCCUCGUCACUCAGCAGGGCAUCUCUGAGAGAAAUGCC [U39C G106U], which self-cleavage is on record?
Its self-cleavage is 0.4.

For UACGUAGGUGGUUUUCCCCUGAUAGUGCUAAGGGGGCCCGGAAGUUUGGACUGGGCAGAGCUCAACACAGCGUGGCAAAGUGGCUGUGGCUAGACUGCCUCUCUGCAUUCCUCGUCACUCAGCAGGGCAUCUCUGAGAGAAAUGCC [U39C G106C], which self-cleavage is on record?
The self-cleavage was 0.84.

Which self-cleavage does the source give for UACGUAGGUGGUUUUCCCCUGAUAGUGCUAAGGGGGCCCGGAAGUUUGGACUGGGCAGAGCUCAACACAGCGUGGCAAAGUGGCUGUGGCUAGACUGCCUCUCUGGAUUCCUCGUCACUCAGCAGGGCAUCUCUGUGAGAAAUGCC [U39C A136U] here?
The self-cleavage was 1.25.

With UACGUAGGUGGUUUUCCCCUGAUAGUGCUAAGGGGGCCCGGAAGUUUGGACUGGGCAGAGCUCAACACAGCGUGGCAAAGUGGCUGUGGCUAGACUGCCUCUCUGGAUUCCUCGUCACUCAGCAGGGCAUCUCUGGGAGAAAUGCC [U39C A136G] as the variant, how does the self-cleavage read?
The self-cleavage was 1.43.

For UACGUAGGUGGUUUUCCCCUGAUAGUGCUAAGGGGGCCCGGAAGUUUGGACUGGGCAGAGCUCAACACAGCGUGGCAAAGUGGCUGUGGCUAGACUGCCUCUCUGGAUUCCUCGUCACUCAGCAGGGCAUCUCUGAAAGAAAUGCC [U39C G137A], which self-cleavage is on record?
Its self-cleavage is 1.09.

With UACGUAGGUGGUUUUCCCCUGAUAGUGCUAAGGGGGCCCGGAAGUUUGGACUGGGCAGAGCUCAACACAGCGUGGCAAAGUGGCUGUGGCUAGACUGCCUCUCUGGAUUCCUCGUCACUCAGCAGGGCAUCUCUGAGAGAUAUGCC [U39C A141U] as the variant, how does the self-cleavage read?
The self-cleavage was 2.2.

With UACGUAGGUGGUUUUCCCCUGAUAGUGCUAAGGGGGCCCGGAAGUUUGGACUGGGCAGAGCUCAACACAGCGUGGCAAAGAGGCUGUGGCUAGACUGCCUCUCUGGAUUCCUCGUCACUCAGCAGGGCAUCUCUGAGAGAAAUGCC [U39C U81A] as the variant, how does the self-cleavage read?
Its self-cleavage is 1.44.

With UACGUAGGUGGUUUUCCCCUGAUAGUGCUAAGGGGGCCCGGAAGUUUGGACUGGGCAGAGCUCAACACAGCGUGGCAAAGCGGCUGUGGCUAGACUGCCUCUCUGGAUUCCUCGUCACUCAGCAGGGCAUCUCUGAGAGAAAUGCC [U39C U81C] as the variant, how does the self-cleavage read?
The self-cleavage was 1.45.

With UACGUAGGUGGUUUUCCCCUGAUAGUGCUAAGGGGGCCCGGAAGUUUGGACUGGGCAGAGCACAACACAGCGUGGCAAAGUGGCUGUGGCUAGACUGCCUCUCUGGAUUCCUCGUCACUCAGCAGGGCAUCUCUGAGAGAAAUGCC [U39C U62A] as the variant, how does the self-cleavage read?
Its self-cleavage is 0.04.

Which self-cleavage does the source give for UACGUAGGUGGUUUUCCCCUGAUAGUGCUAAGGGGGCCCGGAAGUUUGGACUGGGCAGAGGUCAACACAGCGUGGCAAAGUGGCUGUGGCUAGACUGCCUCUCUGGAUUCCUCGUCACUCAGCAGGGCAUCUCUGAGAGAAAUGCC [U39C C61G] here?
The self-cleavage was 0.07.
